# Results taken from US20260092100A1 (ICOSAVAX, published 2026).
# T1: hMPV033 antigen (ectodomain 1-472 of the UT-A CL-28 hMPV F mutant fused to I53-50A) (human metapneumovirus, A strain)
# T1 construct: A 6-Gly linker replaces the F1/F2 cleavage site; The stabilising mutations T127C, N153C, A185P, V231I, L219K, G294E, T365C and V463C are already in the entry; A GS linker and I53-50A follow; also called hMPV033 F protein; I53-50A-hMPV033
# T1 chain: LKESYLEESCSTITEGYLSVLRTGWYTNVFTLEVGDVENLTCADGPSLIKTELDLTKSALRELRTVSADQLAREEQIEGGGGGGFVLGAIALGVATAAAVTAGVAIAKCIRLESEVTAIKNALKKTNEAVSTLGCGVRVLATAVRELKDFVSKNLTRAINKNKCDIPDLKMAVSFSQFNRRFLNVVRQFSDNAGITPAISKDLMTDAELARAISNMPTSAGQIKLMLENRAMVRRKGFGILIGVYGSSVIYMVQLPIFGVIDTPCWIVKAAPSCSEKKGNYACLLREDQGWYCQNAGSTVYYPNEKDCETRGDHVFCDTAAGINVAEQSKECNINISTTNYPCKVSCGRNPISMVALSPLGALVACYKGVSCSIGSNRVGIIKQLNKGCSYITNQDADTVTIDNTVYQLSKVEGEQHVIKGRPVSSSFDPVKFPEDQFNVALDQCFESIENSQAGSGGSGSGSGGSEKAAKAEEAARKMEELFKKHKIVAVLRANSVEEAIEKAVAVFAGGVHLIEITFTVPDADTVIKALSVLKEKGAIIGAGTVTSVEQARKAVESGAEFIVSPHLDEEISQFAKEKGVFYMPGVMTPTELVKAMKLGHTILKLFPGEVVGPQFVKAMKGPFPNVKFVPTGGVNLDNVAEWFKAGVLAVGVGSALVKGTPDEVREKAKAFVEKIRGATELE
# B1: 17D10 hIgG1 (antibody, V domains shown)
# VH: QVQLQQPGAELVKPGASVKMSCKASGYTFTSYWITWVKQRPGQGLEWIGDIYPGSGSITYNEKFKTKATLTVDTSSSTAYMQLNSLTSEDSAVYYCAGLLRLTFDVWGTGTTVTVSS
# VL: DIQLTQTTSSLSASLGDRVTISCRASQDISNYLNWYQQKPDGTVKLLISYTSGLHSGVPSRFSGSGSGTDYSLTISNLEQEDIATYFCQQGNTLPWTFGGGTKLEIKR
# notes: Recombinant form with human IgG1 Fc; also called Human 17D10 mAB; 171D10 hIgG1
# B2: 42C2 (mouse) (antibody, V domains shown)
# VH: QVTLKESGPGILQPSQTLSLTCSFSGFSLSTFGMGVVWTRQPSGKGLEWLAHIWWDDDNYYNPALKSRLTISKDTSKNQVFLKIANADTADTATYYCARIVKVLEQYFDVWGTGTTVTVSS
# VL: DIMMTQSHKFMSTSVGDRVIFTCKASQDVGTAVAWYQQKSGQSPKLLIYWASTRHTGVPDRFTGSGSGTDFTLTISNVQSEDLADYFCQQYTSYPLTFGAGTKLELK
# notes: Mouse IgG1 / kappa; also called 42C2 mIgG; 42C2 mAB
# B3: 13E10 (mouse) (antibody, V domains shown)
# VH: EVKLVESGGGLVQPGGSLSLSCAASGFTFTDYYMNWVRQPPGKALEWLGFIRNKDNGYTTEYSASVKGRFTISRDNSQSILYLQMNALRAEDSATYYCTRYYFGYDGDYFDYWGQGTTLTVSS
# VL: EIVLTQSPTTMAASPGEKITITCSASSSISSNYLHWYQQKAGFSPKLLIYRTSNLASGVPARFSGSGSGTSYSLTIGTMEAEDVATYYCQQGSSLPRTFGGGTKLEIK
# notes: Mouse IgG1 / kappa; also called 13E10 mIgG
# B4: 17D10 (mouse) (antibody, V domains shown)
# VH: B1 VH
# VL: DIQLTQTTSSLSASLGDRVTISCRASQDISNYLNWYQQKPDGTVKLLISYTSGLHSGVPSRFSGSGSGTDYSLTISNLEQEDIATYFCQQGNTLPWTFGGGTKLEIK
# notes: Mouse IgG1 / kappa; also called Mouse 17D10 mAB; 17D10 mIgG
# B5: 17E10 (antibody, mouse IgG1, V domains shown)
# VH: B1 VH
# VL: B4 VL
# B6: 42C2 hIgG1 (antibody, V domains shown)
# VH: B2 VH
# VL: DIMMTQSHKFMSTSVGDRVIFTCKASQDVGTAVAWYQQKSGQSPKLLIYWASTRHTGVPDRFTGSGSGTDFTLTISNVQSEDLADYFCQQYTSYPLTFGAGTKLELKR
# notes: Recombinant form with human IgG1 Fc
# B7: 13E10 hIgG1 (antibody, V domains shown)
# VH: B3 VH
# VL: EIVLTQSPTTMAASPGEKITITCSASSSISSNYLHWYQQKAGFSPKLLIYRTSNLASGVPARFSGSGSGTSYSLTIGTMEAEDVATYYCQQGSSLPRTFGGGTKLEIKR
# notes: as for B6
# Molecular target: T1, hMPV033 antigen (ectodomain 1-472 of …)
# Assay: BLI (Octet)
row,Binder,binding result
1,B1,binds

# Molecular target: T2, hMPV F protein on hMPV/A virus (human metapneumovirus, subtype A, UniProt Q6WB98 19-539)
# Assay: cell-based or functional assay
row,Binder,"hMPV/A neutralization assay titer, supernatant [log2]"
1,B2,> 5
2,B3,> 5
3,B4,> 5
4,B5,> 5

# Molecular target: T1, hMPV033 antigen (ectodomain 1-472 of …)
# Assay: summary of characterisation
row,Binder,binding result
1,B6,binds
2,B7,binds

# Molecular target: T3, DS-Cav1 (RSV control) (UniProt P03420 26-513)
# T3 construct: also called RSV F protein; RSV F
# Assay: Octet biolayer interferometry, bottom panel titled 'anti-DS-Cav1-CompA specificity'; format and concentrations not given
row,Binder,binding result
1,B3,no binding
2,B7,no binding

# Molecular target: T3, DS-Cav1 (RSV control)
# Assay: Octet biolayer interferometry, bottom panel titled 'anti-DS-Cav1-dn5B specificity'; format and concentrations not given
row,Binder,binding result
1,B1,no binding
2,B4,no binding

# Molecular target: T2, hMPV F protein on hMPV/A virus
# Assay: cell-based or functional assay
# Remark: another data set of the same source
# Target sequence in this assay (Q6WB98 19-539): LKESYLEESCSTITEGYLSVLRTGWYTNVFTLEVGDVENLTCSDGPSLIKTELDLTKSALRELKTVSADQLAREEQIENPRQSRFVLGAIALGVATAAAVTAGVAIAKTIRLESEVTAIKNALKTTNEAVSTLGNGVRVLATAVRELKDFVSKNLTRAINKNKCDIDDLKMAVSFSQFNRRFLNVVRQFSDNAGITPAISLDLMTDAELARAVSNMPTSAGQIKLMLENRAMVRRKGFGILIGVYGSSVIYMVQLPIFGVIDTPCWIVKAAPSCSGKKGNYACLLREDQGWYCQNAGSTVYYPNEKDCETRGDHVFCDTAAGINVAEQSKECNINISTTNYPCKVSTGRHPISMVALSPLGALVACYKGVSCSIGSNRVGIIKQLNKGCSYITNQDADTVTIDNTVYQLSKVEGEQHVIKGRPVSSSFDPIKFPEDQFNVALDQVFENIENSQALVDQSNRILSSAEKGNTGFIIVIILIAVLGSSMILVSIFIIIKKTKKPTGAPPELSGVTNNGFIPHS
Binder,"IC50, final serum dilution [µg/mL]","IC50, original serum dilution [µg/mL]","hMPV/A RL Bx Titer (Log 2), microneutralization assay [log2]"
B2,0.0977,0.391,9
B6,0.0691,0.276,9.5
B3,0.195,0.781,8
B7,0.0977,0.391,9
B1,0.0345,0.138,10.5
B4,0.0488,0.195,10

# Molecular target: T3, DS-Cav1 (RSV control)
# Assay: Octet biolayer interferometry, bottom panel titled 'anti-DS-Cav1-CompA specificity'; format and concentrations not given
# Remark: another data set of the same source
row,Binder,binding result
1,B2,no binding
2,B6,no binding

# Molecular target: T1, hMPV033 antigen (ectodomain 1-472 of …)
# Assay: Octet biolayer interferometry: mouse antibody captured on Protein G biosensors, CompA-hMPV033 (panel title 'Pre Fusion hMPV-F') at 10 µg/mL in solution, 120 s association and 120 s dissociation
row,Binder,binding result
1,B2,binds
2,B3,binds
3,B4,binds
